Measurements from patent US20250228976A1 (BROAD INSTITUTE, published 2025).

Columns and labels:
[1] = biological target: T1, human Transferrin Receptor (TFRC) (human, UniProt P02786 1-760); assay: binding of AAV to CHO or hCMEC cells expressing human TFRC, relative to AAV9
T1 construct: whole, on cells; also called hTFRC; huTfR1

[2] = biological target: T2, macaque TfR1 (rhesus macaque, UniProt I0FKY7 1-760); assay: qPCR of cell-bound vector genomes, CHO cells stably expressing TfR1, 4 C, 1 h
T2 construct: whole, on cells; also called macTfR1; rhesus macaque TFRC

[3] = biological target: T3, mouse TfR1 (mouse, UniProt Q62351 1-763); assay: as above
T3 construct: whole, on cells; also called mouse TFRC; mouse Tfrc
T3 sequence (Q62351 whole entry): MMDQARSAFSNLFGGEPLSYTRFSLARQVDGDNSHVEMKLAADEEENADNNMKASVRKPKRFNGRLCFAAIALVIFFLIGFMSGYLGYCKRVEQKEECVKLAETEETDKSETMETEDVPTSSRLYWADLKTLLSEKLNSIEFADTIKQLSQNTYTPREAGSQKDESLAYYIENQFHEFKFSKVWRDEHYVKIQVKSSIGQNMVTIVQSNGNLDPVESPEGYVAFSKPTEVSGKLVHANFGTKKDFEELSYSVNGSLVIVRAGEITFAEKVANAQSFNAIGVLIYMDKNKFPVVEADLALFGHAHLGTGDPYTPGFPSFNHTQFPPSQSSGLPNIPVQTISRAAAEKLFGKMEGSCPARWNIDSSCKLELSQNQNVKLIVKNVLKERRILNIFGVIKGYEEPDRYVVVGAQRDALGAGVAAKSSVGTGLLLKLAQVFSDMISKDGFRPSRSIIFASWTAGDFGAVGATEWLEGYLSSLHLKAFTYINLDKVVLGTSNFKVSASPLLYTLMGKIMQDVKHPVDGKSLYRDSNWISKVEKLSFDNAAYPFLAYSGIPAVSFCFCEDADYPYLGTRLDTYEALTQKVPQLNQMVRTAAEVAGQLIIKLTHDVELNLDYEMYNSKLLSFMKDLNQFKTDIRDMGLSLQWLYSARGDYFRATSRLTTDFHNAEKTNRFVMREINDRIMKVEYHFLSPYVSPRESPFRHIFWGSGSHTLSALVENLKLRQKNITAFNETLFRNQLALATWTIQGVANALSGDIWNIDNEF

[4] = biological target: T4, marmoset TfR1 (marmoset, UniProt U3FHF5 1-760); assay: as above
T4 construct: whole, on cells; also called marmoset TFRC; marTFRC

[5] = biological target: T1, human Transferrin Receptor (TFRC); assay: legend of the 2-step in vivo transduction assay (human TFRC expressed in mouse brain endothelium)

T1 sequence (P02786 whole entry): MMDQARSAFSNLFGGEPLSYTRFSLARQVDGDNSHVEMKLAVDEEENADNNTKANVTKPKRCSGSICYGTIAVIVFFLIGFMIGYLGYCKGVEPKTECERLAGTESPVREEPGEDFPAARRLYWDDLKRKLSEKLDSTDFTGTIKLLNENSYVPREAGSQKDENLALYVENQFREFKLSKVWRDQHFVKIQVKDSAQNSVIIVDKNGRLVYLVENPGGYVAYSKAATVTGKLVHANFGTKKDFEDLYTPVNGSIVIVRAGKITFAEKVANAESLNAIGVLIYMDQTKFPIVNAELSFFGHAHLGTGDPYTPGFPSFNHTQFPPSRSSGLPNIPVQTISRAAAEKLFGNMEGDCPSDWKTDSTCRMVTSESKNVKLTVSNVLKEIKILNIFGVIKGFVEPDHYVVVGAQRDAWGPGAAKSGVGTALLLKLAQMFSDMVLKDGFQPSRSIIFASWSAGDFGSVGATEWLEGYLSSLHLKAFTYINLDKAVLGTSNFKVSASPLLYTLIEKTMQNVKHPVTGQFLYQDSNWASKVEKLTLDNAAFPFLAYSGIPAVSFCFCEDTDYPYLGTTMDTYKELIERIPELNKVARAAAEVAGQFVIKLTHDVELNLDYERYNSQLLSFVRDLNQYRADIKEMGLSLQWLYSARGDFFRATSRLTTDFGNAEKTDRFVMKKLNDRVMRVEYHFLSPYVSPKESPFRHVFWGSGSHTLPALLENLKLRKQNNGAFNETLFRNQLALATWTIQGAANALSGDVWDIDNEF

B1: AAV-BI98 (other)
chain: MAADGYLPDWLEDNLSEGIREWWALKPGAPQPKANQQHQDNARGLVLPGYKYLGPGNGLDKGEPVNAADAAALEHDKAYDQQLKAGDNPYLKYNHADAEFQERLKEDTSFGGNLGRAVFQAKKRLLEPLGLVEEAAKTAPGKKRPVEQSPQEPDSSAGIGKSGAQPAKKRLNFGQTGDTESVPDPQPIGEPPAAPSGVGSLTMASGGGAPVADNNEGADGVGSSSGNWHCDSQWLGDRVITTSTRTWALPTYNNHLYKQISNSTSGGSSNDNAYFGYSTPWGYFDFNRFHCHFSPRDWQRLINNNWGFRPKRLNFKLFNIQVKEVTDNNGVKTIANNLTSTVQVFTDSDYQLPYVLGSAHEGCLPPFPADVFMIPQYGYLTLNDGSQAVGRSSFYCLEYFPSQMLRTGNNFQFSYEFENVPFHSSYAHSQSLDRLMNPLIDQYLYYLSRTINGSGQNQQTLKFSVAGPSNMAVQGRNYIPGPSYRQQRVSTTVTQNNNSEFAWPGASSWALNGRNSLMNPGPAMASHKEGEDRFFPLSGSLIFGKQGTGRDNVDADKVMITNEEEIKTTNPVATESYGQVATNHQSAQYSRLNMNAQAQTGWVQNQGILPGMVWQDRDVYLQGPIWAKIPHTDGNFHPSPLMGGFGMKHPPPQILIKNTPVPADPPTAFNKDKLNSFITQYSTGQVSVEIEWELQKENSKRWNPEIQYTSNYYKSNNVEFAVNTEGVYSEPRPIGTRYLTRNL
notes: Engineered AAV capsid tested as assembled virus particles; entry is full VP1; also called AAV-B198
[1]
  binding result: binds
[2]
  binding result: no binding (tested: 3,000 vg/cell)
[3]
  binding result: no binding (tested: 3,000 vg/cell)
[4]
  binding result: no binding (tested: 3,000 vg/cell)

B2: AAV-BI19 (other)
chain: MAADGYLPDWLEDNLSEGIREWWALKPGAPQPKANQQHQDNARGLVLPGYKYLGPGNGLDKGEPVNAADAAALEHDKAYDQQLKAGDNPYLKYNHADAEFQERLKEDTSFGGNLGRAVFQAKKRLLEPLGLVEEAAKTAPGKKRPVEQSPQEPDSSAGIGKSGAQPAKKRLNFGQTGDTESVPDPQPIGEPPAAPSGVGSLTMASGGGAPVADNNEGADGVGSSSGNWHCDSQWLGDRVITTSTRTWALPTYNNHLYKQISNSTSGGSSNDNAYFGYSTPWGYFDFNRFHCHFSPRDWQRLINNNWGFRPKRLNFKLFNIQVKEVTDNNGVKTIANNLTSTVQVFTDSDYQLPYVLGSAHEGCLPPFPADVFMIPQYGYLTLNDGSQAVGRSSFYCLEYFPSQMLRTGNNFQFSYEFENVPFHSSYAHSQSLDRLMNPLIDQYLYYLSRTINGSGQNQQTLKFSVAGPSNMAVQGRNYIPGPSYRQQRVSTTVTQNNNSEFAWPGASSWALNGRNSLMNPGPAMASHKEGEDRFFPLSGSLIFGKQGTGRDNVDADKVMITNEEEIKTTNPVATESYGQVATNHQSAQYSRIGPNAQAQTGWVQNQGILPGMVWQDRDVYLQGPIWAKIPHTDGNFHPSPLMGGFGMKHPPPQILIKNTPVPADPPTAFNKDKLNSFITQYSTGQVSVEIEWELQKENSKRWNPEIQYTSNYYKSNNVEFAVNTEGVYSEPRPIGTRYLTRNL
notes: Engineered AAV capsid, tested as assembled genome-packaging virus particles; VP2 and VP3 come from the same cap gene
[5]
  binding result: binds
[2]
  binding result: no binding (tested: 3,000 vg/cell)
[3]
  binding result: no binding (tested: 3,000 vg/cell)
[4]
  binding result: no binding (tested: 3,000 vg/cell)

B3: AAV-BI99 (other)
chain: MAADGYLPDWLEDNLSEGIREWWALKPGAPQPKANQQHQDNARGLVLPGYKYLGPGNGLDKGEPVNAADAAALEHDKAYDQQLKAGDNPYLKYNHADAEFQERLKEDTSFGGNLGRAVFQAKKRLLEPLGLVEEAAKTAPGKKRPVEQSPQEPDSSAGIGKSGAQPAKKRLNFGQTGDTESVPDPQPIGEPPAAPSGVGSLTMASGGGAPVADNNEGADGVGSSSGNWHCDSQWLGDRVITTSTRTWALPTYNNHLYKQISNSTSGGSSNDNAYFGYSTPWGYFDFNRFHCHFSPRDWQRLINNNWGFRPKRLNFKLFNIQVKEVTDNNGVKTIANNLTSTVQVFTDSDYQLPYVLGSAHEGCLPPFPADVFMIPQYGYLTLNDGSQAVGRSSFYCLEYFPSQMLRTGNNFQFSYEFENVPFHSSYAHSQSLDRLMNPLIDQYLYYLSRTINGSGQNQQTLKFSVAGPSNMAVQGRNYIPGPSYRQQRVSTTVTQNNNSEFAWPGASSWALNGRNSLMNPGPAMASHKEGEDRFFPLSGSLIFGKQGTGRDNVDADKVMITNEEEIKTTNPVATESYGQVATNHQSAQYSRLNKDAQAQTGWVQNQGILPGMVWQDRDVYLQGPIWAKIPHTDGNFHPSPLMGGFGMKHPPPQILIKNTPVPADPPTAFNKDKLNSFITQYSTGQVSVEIEWELQKENSKRWNPEIQYTSNYYKSNNVEFAVNTEGVYSEPRPIGTRYLTRNL
notes: Engineered AAV capsid tested as assembled virus particles; entry is full VP1
[1]
  binding result: binds
[2]
  binding result: no binding (tested: 3,000 vg/cell)
[3]
  binding result: no binding (tested: 3,000 vg/cell)
[4]
  binding result: no binding (tested: 3,000 vg/cell)

B4: AAV-BI100 (other)
chain: MAADGYLPDWLEDNLSEGIREWWALKPGAPQPKANQQHQDNARGLVLPGYKYLGPGNGLDKGEPVNAADAAALEHDKAYDQQLKAGDNPYLKYNHADAEFQERLKEDTSFGGNLGRAVFQAKKRLLEPLGLVEEAAKTAPGKKRPVEQSPQEPDSSAGIGKSGAQPAKKRLNFGQTGDTESVPDPQPIGEPPAAPSGVGSLTMASGGGAPVADNNEGADGVGSSSGNWHCDSQWLGDRVITTSTRTWALPTYNNHLYKQISNSTSGGSSNDNAYFGYSTPWGYFDFNRFHCHFSPRDWQRLINNNWGFRPKRLNFKLFNIQVKEVTDNNGVKTIANNLTSTVQVFTDSDYQLPYVLGSAHEGCLPPFPADVFMIPQYGYLTLNDGSQAVGRSSFYCLEYFPSQMLRTGNNFQFSYEFENVPFHSSYAHSQSLDRLMNPLIDQYLYYLSRTINGSGQNQQTLKFSVAGPSNMAVQGRNYIPGPSYRQQRVSTTVTQNNNSEFAWPGASSWALNGRNSLMNPGPAMASHKEGEDRFFPLSGSLIFGKQGTGRDNVDADKVMITNEEEIKTTNPVATESYGQVATNHQSAQVHRLQDKAQAQTGWVQNQGILPGMVWQDRDVYLQGPIWAKIPHTDGNFHPSPLMGGFGMKHPPPQILIKNTPVPADPPTAFNKDKLNSFITQYSTGQVSVEIEWELQKENSKRWNPEIQYTSNYYKSNNVEFAVNTEGVYSEPRPIGTRYLTRNL
notes: as for B3
[1]
  binding result: binds

B5: AAV-BI101 (other)
chain: MAADGYLPDWLEDNLSEGIREWWALKPGAPQPKANQQHQDNARGLVLPGYKYLGPGNGLDKGEPVNAADAAALEHDKAYDQQLKAGDNPYLKYNHADAEFQERLKEDTSFGGNLGRAVFQAKKRLLEPLGLVEEAAKTAPGKKRPVEQSPQEPDSSAGIGKSGAQPAKKRLNFGQTGDTESVPDPQPIGEPPAAPSGVGSLTMASGGGAPVADNNEGADGVGSSSGNWHCDSQWLGDRVITTSTRTWALPTYNNHLYKQISNSTSGGSSNDNAYFGYSTPWGYFDFNRFHCHFSPRDWQRLINNNWGFRPKRLNFKLFNIQVKEVTDNNGVKTIANNLTSTVQVFTDSDYQLPYVLGSAHEGCLPPFPADVFMIPQYGYLTLNDGSQAVGRSSFYCLEYFPSQMLRTGNNFQFSYEFENVPFHSSYAHSQSLDRLMNPLIDQYLYYLSRTINGSGQNQQTLKFSVAGPSNMAVQGRNYIPGPSYRQQRVSTTVTQNNNSEFAWPGASSWALNGRNSLMNPGPAMASHKEGEDRFFPLSGSLIFGKQGTGRDNVDADKVMITNEEEIKTTNPVATESYGQVATNHQSAQYHRLSNNAQAQTGWVQNQGILPGMVWQDRDVYLQGPIWAKIPHTDGNFHPSPLMGGFGMKHPPPQILIKNTPVPADPPTAFNKDKLNSFITQYSTGQVSVEIEWELQKENSKRWNPEIQYTSNYYKSNNVEFAVNTEGVYSEPRPIGTRYLTRNL
notes: as for B3
[1]
  binding result: binds
[2]
  binding result: no binding (tested: 3,000 vg/cell)
[3]
  binding result: no binding (tested: 3,000 vg/cell)
[4]
  binding result: no binding (tested: 3,000 vg/cell)

B6: AAV-BI102 (other)
chain: MAADGYLPDWLEDNLSEGIREWWALKPGAPQPKANQQHQDNARGLVLPGYKYLGPGNGLDKGEPVNAADAAALEHDKAYDQQLKAGDNPYLKYNHADAEFQERLKEDTSFGGNLGRAVFQAKKRLLEPLGLVEEAAKTAPGKKRPVEQSPQEPDSSAGIGKSGAQPAKKRLNFGQTGDTESVPDPQPIGEPPAAPSGVGSLTMASGGGAPVADNNEGADGVGSSSGNWHCDSQWLGDRVITTSTRTWALPTYNNHLYKQISNSTSGGSSNDNAYFGYSTPWGYFDFNRFHCHFSPRDWQRLINNNWGFRPKRLNFKLFNIQVKEVTDNNGVKTIANNLTSTVQVFTDSDYQLPYVLGSAHEGCLPPFPADVFMIPQYGYLTLNDGSQAVGRSSFYCLEYFPSQMLRTGNNFQFSYEFENVPFHSSYAHSQSLDRLMNPLIDQYLYYLSRTINGSGQNQQTLKFSVAGPSNMAVQGRNYIPGPSYRQQRVSTTVTQNNNSEFAWPGASSWALNGRNSLMNPGPAMASHKEGEDRFFPLSGSLIFGKQGTGRDNVDADKVMITNEEEIKTTNPVATESYGQVATNHQSAQLHALSHNAQAQTGWVQNQGILPGMVWQDRDVYLQGPIWAKIPHTDGNFHPSPLMGGFGMKHPPPQILIKNTPVPADPPTAFNKDKLNSFITQYSTGQVSVEIEWELQKENSKRWNPEIQYTSNYYKSNNVEFAVNTEGVYSEPRPIGTRYLTRNL
notes: as for B3
[1]
  binding result: binds
